Assays:
Test in all cases: EMSA
Details in all cases: EMSA: 20 mM HEPES pH 7.3, 150 mM NaCl, 0.5 mM TCEP, 30 min room temperature, 0.5 uM nucleosome or DNA, FRET: 20 mM HEPES pH 7.1, 100 mM NaCl
[1] = biological target: PU.1 ETS (ETSPU.1) (mouse) (UniProt P17433)
MBP-DBD C/EBPalpha = MBP-DBD C/EBPalpha (UniProt P53566)
[2] = biological target: PU.1 ETS Q218H Q218H (mouse) (UniProt P17433)

Chain of MBP-DBD C/EBPalpha (P53566 214-359): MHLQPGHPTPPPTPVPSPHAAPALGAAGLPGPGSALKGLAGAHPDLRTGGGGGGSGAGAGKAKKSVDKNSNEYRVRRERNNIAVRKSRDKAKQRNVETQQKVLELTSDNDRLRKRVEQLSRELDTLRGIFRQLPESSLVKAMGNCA

Sequence | fold reduction in binding affinity (fold reduction in affinity vs WT H2A) [1] | Kd (MBP-DBD C/EBPalpha) [nM] | binding signal (fold reduction in affinity vs WT) [2]
TAGGTGCAGGGCCTCTCGGCTGCTGATCTTCAGCTGGTTGCTGAGAGTTGCAGCATTGCTGAGTCTTAGCAATGGATACTTCCCGATTCCCCTCACAAAAATAGGTCAGTCTGTCTGGCTAGTTCTGTACTTGCAGACACAGGGCATGTGGGGTTCCTATTT (double strand) [162 bp CX3CR1 nucleosome, 3A H2A (K75A;K76A;T77A)] | 3 |  | 
TAGGTGCAGGGCCTCTCGGCTGCTGATCTTCAGCTGGTTGCTGAGAGTTGCAGCATTGCTGAGTCTTAGCAATGGATACTTCCCGATTCCCCTCACAAAAATAGGTCAGTCTGTCTGGCTAGTTCTGTACTTGCAGACACAGGGCATGTGGGGTTCCTATTT (double strand) [162 bp CX3CR1 nucleosome] |  | 1700 | 2
TAGGTGCAGGGCCTCTCGGCTGCTGATCTTCAGCAACTTGCTGAGAGTTGCAGCATTGCTGAGTCTTAGCAATGGATACTTCCCGATTCCCCTCACAAAAATAGGTCAGTCTGTCTGGCTAGTTCTGTACTTGCAGACACAGGGCATGTGGGGTTCCTATTT (double strand) [Cmut CX3CR1 nucleosome] |  | 2400 | 
